This is an account of results in paper PMC2628611.

This test concerns the target GST-DOC2b (wild type) (mouse) (UniProt P70169). The test can be described thus: pull-down.
Chain of UniProt P70169 (P70169 whole entry): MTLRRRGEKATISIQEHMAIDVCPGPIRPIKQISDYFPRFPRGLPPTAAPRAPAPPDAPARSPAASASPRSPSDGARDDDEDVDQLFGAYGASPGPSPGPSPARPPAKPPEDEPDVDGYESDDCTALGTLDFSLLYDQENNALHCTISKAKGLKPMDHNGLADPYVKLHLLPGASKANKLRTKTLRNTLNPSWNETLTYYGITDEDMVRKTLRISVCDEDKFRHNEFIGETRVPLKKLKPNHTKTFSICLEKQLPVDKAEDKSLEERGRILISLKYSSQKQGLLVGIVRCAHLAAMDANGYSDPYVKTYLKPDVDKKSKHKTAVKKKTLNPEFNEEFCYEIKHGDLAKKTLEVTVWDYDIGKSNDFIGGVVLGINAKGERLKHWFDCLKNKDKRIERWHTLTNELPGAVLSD

Turning to “recombinant syntaxin-4 (cleaved from GST syntaxin-4) (from UniProt P70452 1-298) (natural protein)”, the percent of syntaxin-4 pulled down was determined as 5%.
